Laboratory results as given in patent US20210380703A1 (RIGEL PHARMACEUTICALS, published 2021).

Legend:
[1] = biological target: ACVR2A on primary human myotubes (human, UniProt P27037 20-513); test: cell-based or functional assay
Target sequence in this assay (P27037 20-513): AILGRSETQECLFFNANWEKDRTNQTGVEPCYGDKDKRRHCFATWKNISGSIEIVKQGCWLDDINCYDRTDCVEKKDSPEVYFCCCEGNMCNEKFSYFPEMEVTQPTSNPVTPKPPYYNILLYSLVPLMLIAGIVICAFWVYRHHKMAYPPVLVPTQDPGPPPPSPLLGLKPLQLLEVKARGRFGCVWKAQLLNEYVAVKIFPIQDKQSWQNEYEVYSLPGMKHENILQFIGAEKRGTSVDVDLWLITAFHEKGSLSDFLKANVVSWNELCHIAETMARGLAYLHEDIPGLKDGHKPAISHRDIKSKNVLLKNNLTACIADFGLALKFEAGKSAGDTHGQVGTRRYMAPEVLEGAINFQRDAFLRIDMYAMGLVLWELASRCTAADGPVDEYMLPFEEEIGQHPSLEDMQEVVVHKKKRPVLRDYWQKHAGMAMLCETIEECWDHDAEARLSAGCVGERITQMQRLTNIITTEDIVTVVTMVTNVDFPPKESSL

[2] = biological target: ACVR2A on primary human myotubes (human, UniProt P27037 20-513); test: cell-based or functional assay; remark: listed apart in the source
Target sequence in this assay (P27037 20-513): as above

Binder	Phospho-SMAD3 Human Skeletal Muscle GDF8 [1]	Phospho-SMAD3 Human Skeletal Muscle GDF8 [2]
373_F08 (antibody, V domains shown) VH: EVQLLESGGGLVQPGGSLRLSCAASGFTFSSYSMNWVRQAPGKGLEWVSGINYNGGYTSYADSVKGRFTISRDNSKNTLYLQMNSLRAEDTAVYYCARGANWHDTALDYWGQGTLVTVSS VL: DIQMTQSPSSLSASVGDRVTITCRASQSILTYLNWYQQKPGKAPKLLIYAATSRASGVPSRFSGSGSGTDFTLTISSLQPEDFATYYCQQSYDTPLTFGGGTKVEIK	0.005	
376_C06 (antibody, V domains shown) VH: EVQLLESGGGLVQPGGSLRLSCAASGFTFSSYGMNWVRQAPGKGLEWVAGINYNGGYTSYADSVKGRFTISRDNSKNTLYLQMNSLRAEDTAVYYCARSATWHDTALDYWGQGTLVTVSS VL: DIQMTQSPSSLSASVGDRVTITCRASQSILSYLNWYQQKPGKAPKLVIYAATSRASGVPSRFSGSGSGTDFTLTISSLQPEDFATYYCQQSYDSPLTFGGGTKVEIK		0.0107
372_F03 (antibody, V domains shown) VH: EVQLLESGGGLVQPGGSLRLSCAASGFTFSSYGMNWVRQAPGKGLEWVAGINYNGGYTSYADSVKGRFTISRDNSKNTLYLQMNSLRAEDTAVYYCARSANWHDTALDYWGQGTLVTVSS VL: DIQMTQSPSSLSASVGDRVTITCRASQSILSYLNWYQQKPGKAPKLVIYAATSRASGVPSRFSGSGSGTDFTLTISSLQPEDFATYYCQQSYDTPLTFGGGTKVEIK		0.0646
368_G03 (antibody, V domains shown) VH: EVQLLESGGGLVQPGGSLRLSCAASGFTFSSYSMNWVRQAPGKGLEWVSGINYNSGYTSYADSVKGRFTISRDNSKNTLYLQMNSLRAEDTAVYYCARGATWHDTALDYWGQGTLVTVSS VL: DIQMTQSPSSLSASVGDRVTITCRASQSILSYLNWYQQKPGKAPKLVIYAATSRASGVPSRFSGSGSGTDFTLTISSLQPEDFATYYCQQSYDTPLTFGGGTKVEIK	0.299	
374_E05 (antibody, V domains shown) VH: EVQLLESGGGLVQPGGSLRLSCAASGFTFSSYSMNWVRQAPGKGLEWVAGINYNGGYTSYADSVKGRFTISRDNSKNTLYLQMNSLRAEDTAVYYCARSANWHDTALDYWGQGTLVTVSS VL: DIQMTQSPSSLSASVGDRVTITCRASQSILSFVNWYQQKPGKAPKLVIYAATSRASGVPSRFSGSGSGTDFTLTISSLQPEDFATYYCQQSYNLPLTFGGGTKVEIK		0.0497
372_A04 (antibody, V domains shown) VH: EVQLLESGGGLVQPGGSLRLSCAASGFTFDSYSMNWVRQAPGKGLEWVSGINYNSGYTSYADSVKGRFTISRDNSKNTLYLQMNSLRAEDTAVYYCARSANWHDTALDYWGQGTLVTVSS VL: DIQMTQSPSSLSASVGDRVTITCRASQSILTYLNWYQQKPGKAPKLVIYAATSRASGVPSRFSGSGSGTDFTLTISSLQPEDFATYYCQQSYETPLTFGGGTKVEIK		0.0193
369_F09 (antibody, V domains shown) VH: EVQLLESGGGLVQPGGSLRLSCAASGFTFSSYGMHWVRQAPGKGLEWVAGINYNGGYTSYADSVKGRFTISRDNSKNTLYLQMNSLRAEDTAVYYCARGATWHDTHLDYWGQGTLVTVSS VL: DIQMTQSPSSLSASVGDRVTITCRASQSILTYVNWYQQKPGKAPKLLIYAATSRASGVPSRFSGSGSGTDFTLTISSLQPEDFATYYCQQSYDSPLTFGGGTKVEIK	0.0325	

Results, then the binder that gave them:

Phospho-SMAD3 Human Skeletal Muscle GDF8 [1]	Phospho-SMAD3 Human Skeletal Muscle GDF8 [2]	Binder
	0.018	372_F09 (antibody, V domains shown) VH: EVQLLESGGGLVQPGGSLRLSCAASGFTFDSYSMNWVRQAPGKGLEWVANINYNSGYKGYADSVKGRFTISRDNSKNTLYLQMNSLRAEDTAVYYCARSANWHDTALDYWGQGTLVTVSS VL: DIQMTQSPSSLSASVGDRVTITCRASQSILTYLNWYQQKPGKAPKLVIYAATSLASGVPSRFSGSGSGTDFTLTISSLQPEDFATYYCQQSYSSPLTFGGGTKVEIK
	0.0093	374_B04 (antibody, V domains shown) VH: EVQLLESGGGLVQPGGSLRLSCAASGFTFSSYSMNWVRQAPGKGLEWVSNINYNSGYTGYADSVKGRFTISRDNSKNTLYLQMNSLRAEDTAVYYCARSANWHDTALDYWGQGTLVTVSS VL: DIQMTQSPSSLSASVGDRVTITCRASQSIVSYLNWYQQKPGKAPKLLIYAVTSRASGVPSRFSGSGSGTDFTLTISSLQPEDFATYYCQQSYESPLTFGGGTKVEIK
0.159		367_A02 (antibody, V domains shown) VH: EVQLLESGGGLVQPGGSLRLSCAASGFTFDSYGMNWVRQAPGKGLEWVSSINYNSGYKGYADSVKGRFTISRDNSKNTLYLQMNSLRAEDTAVYYCARGATWHDTHLDYWGQGTLVTVSS VL: DIQMTQSPSSLSASVGDRVTITCRASQSIISYLNWYQQKPGKAPKLLIYAVTSRASGVPSRFSGSGSGTDFTLTISSLQPEDFATYYCQQSYDTPLTFGGGTKVEIK
	0.0402	371_B07 (antibody, V domains shown) VH: EVQLLESGGGLVQPGGSLRLSCAASGFTFDSYSMNWVRQAPGKGLEWVAGINYNGGYTSYADSVKGRFTISRDNSKNTLYLQMNSLRAEDTAVYYCARSANWHDTALDYWGQGTLVTVSS VL: DIQMTQSPSSLSASVGDRVTITCRASQSILTYVNWYQQKPGKAPKLLIYAATSRASGVPSRFSGSGSGTDFTLTISSLQPEDFATYYCQQSYELPLTFGGGTKVEIK
	0.0093	370_H01 (antibody, V domains shown) VH: EVQLLESGGGLVQPGGSLRLSCAASGFTFSSYSMNWVRQAPGKGLEWVSGINYNSGYKGYADSVKGRFTISRDNSKNTLYLQMNSLRAEDTAVYYCARSANWHDTALDYWGQGTLVTVSS VL: DIQMTQSPSSLSASVGDRVTITCRASQSIISYLNWYQQKPGKAPKLLIYAVTSRASGVPSRFSGSGSGTDFTLTISSLQPEDFATYYCQQSYDTPLTFGGGTKVEIK
	0.0093	373_B04 (antibody, V domains shown) VH: EVQLLESGGGLVQPGGSLRLSCAASGFTFSSYGMNWVRQAPGKGLEWVAGINYNSGYKGYADSVKGRFTISRDNSKNTLYLQMNSLRAEDTAVYYCARSANWHDTALDYWGQGTLVTVSS VL: DIQMTQSPSSLSASVGDRVTITCRASQSILTYLNWYQQKPGKAPKLLIYAATSRASGVPSRFSGSGSGTDFTLTISSLQPEDFATYYCQQSYETPLTFGGGTKVEIK
0.0094		369_C12 (antibody, V domains shown) VH: EVQLLESGGGLVQPGGSLRLSCAASGFTFSSYGMNWVRQAPGKGLEWVANINYNGGYKGYADSVKGRFTISRDNSKNTLYLQMNSLRAEDTAVYYCARGATWHDTHLDYWGQGTLVTVSS VL: DIQMTQSPSSLSASVGDRVTITCRASQSILTYLNWYQQKPGKAPKLLIYAATSRHSGVPSRFSGSGSGTDFTLTISSLQPEDFATYYCQQSYDTPLTFGGGTKVEIK
	0.585	374_C08 (antibody, V domains shown) VH: EVQLLESGGGLVQPGGSLRLSCAASGFTFDSYGMNWVRQAPGKGLEWVSGINYNSGYKSYADSVKGRFTISRDNSKNTLYLQMNSLRAEDTAVYYCARSATWHDTALDYWGQGTLVTVSS VL: DIQMTQSPSSLSASVGDRVTITCRASQSILSYVNWYQQKPGKAPKLLIYAVTSRASGVPSRFSGSGSGTDFTLTISSLQPEDFATYYCQQSYDSPLTFGGGTKVEIK
